Test results from PMC5780041.

Tests used:
Experiment in all cases: GST pull-down, quantified immunoblot
[1] = molecular target: 3x tandem linear human ubiquitin (C-terminal His-tagged) (UniProt P0CG48); conditions: - PINK1 (non-phosphorylated 3xUb); parent: est. 16; read off a plot
[2] = molecular target: 4x tandem linear human ubiquitin (C-terminal His-tagged), phosphorylated in vitro by GST-TcPINK1 (UniProt P0CG48); conditions: + PINK1 (4xUb pre-treated with GST-TcPINK1); parent: est. 20; read off a plot
[3] = molecular target: 3x tandem linear human ubiquitin (C-terminal His-tagged), phosphorylated in vitro by GST-TcPINK1 (UniProt P0CG48); conditions: + PINK1 (3xUb pre-treated with GST-TcPINK1); parent: est. 14; read off a plot
[4] = molecular target: 4x tandem linear human ubiquitin (C-terminal His-tagged) (UniProt P0CG48); conditions: - PINK1 (non-phosphorylated 4xUb); parent: est. 32; read off a plot
[5] = molecular target: 2x tandem linear human ubiquitin (C-terminal His-tagged), phosphorylated in vitro by GST-TcPINK1 (UniProt P0CG48); conditions: + PINK1 (2xUb pre-treated with GST-TcPINK1); parent: est. 7.5; read off a plot

Sequence of GST-tagged mouse RABGEF1 (WT) 1-74aa, Q9JM13 A58D (Q9JM13 1-74 A58D): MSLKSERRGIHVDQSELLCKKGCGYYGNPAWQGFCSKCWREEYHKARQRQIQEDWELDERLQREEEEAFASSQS
Sequence of GST-tagged mouse RABGEF1 (WT) 1-74aa, Q9JM13 Y26A (Q9JM13 1-74 Y26A): as the sequence (Q9JM13 1-74 A58D) above, with Y26A, D58A counted along it

response [1] | response [2] | response [3] | response [4] | response [5] | Substance
8 % of total | 17 % of total | 8 % of total | 24 % of total | – | GST-tagged mouse RABGEF1 (WT) 1-74aa, Q9JM13 A58D
14 % of total | 20 % of total | 13 % of total | 28 % of total | 4 % of total | GST-tagged mouse RABGEF1 (WT) 1-74aa, Q9JM13 Y26A
